Data on nine molecules can be found in patent publication EP4682164A1 (Curogen Technology Co., Ltd., dated 2026).

Changes are numbered by the printed parent chain.

Sequences and labels used below:
T1: human IL-17F (IL-17FF homodimer) (human, UniProt Q96PD4 31-163)
T1 sequence (looked up): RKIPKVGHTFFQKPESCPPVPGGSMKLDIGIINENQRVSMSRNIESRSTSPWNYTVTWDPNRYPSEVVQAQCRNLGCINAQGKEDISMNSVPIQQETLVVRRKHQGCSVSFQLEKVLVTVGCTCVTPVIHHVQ

B1: T1-T4-06 (Fc fusion)
chain: LRLLDHRAPVCSQPGLNCTVKNSDCLDDSWIHPRNLTPSSPKDLQIQLHFAHTQQGDLVPVAHIEWTLQTDASILYLEGAELSVLQLDTNERLCVRFEFLSKLRHHHRRWRFTFSHFVVDPGQEYEVTVHHLPKPIPDGDPNHQSKNFLVPDCEHARMKVTTPCMSSALPWLNVSADGDNVHLVLNVSEEQHFGLSLYWNQVQGPPKPRWHKNLTGPQIITLNHTDLVPCLCIQVWPLEPDSVRTNICPFREDPRAHQNLWQAARLRLLTLQSWLLDAPCSLPAEAALCWRAPGGDPCQPLVPPLSWENVTVDKVLEFPLLKGHPNLCVQVNSSEKLQLQECLWADSLGPLKDDVLLLETRGPQDNRSLCALEPSGCTSLPSKASTRAARLGEYLLQDLQSGQCLQLWDDDLGALWACPMDKYIHKTGIEGRMDRNTGRGGEEKKKEKEKEEQEERETKTPECPSHTQPLGVFLFPPKPKDTLMISRTPEVTCVVVDVSQEDPEVQFNWYVDGVEVHNAKTKPREEQFNSTYRVVSVLTVLHQDWLNGKEYKCKVSNKGLPSSIEKTISKAKGQPREPQVYTLPPSQEEMTKNQVSLTCLVKGFYPSDIAVEWESNGQPENNYKTTPPVLDSDGSFFLYSRLTVDKSRWQEGNVFSCSVMHEALHNHYTQKSLSLSLGKGGGGSGGGGSGGGGSLELPAQVAFTPYAPEPGSTCRLREYYDQTAQMCCSKCSPGQHAKVFCTKTSDTVCDSCEDSTYTQLWNWVPECLSCGSRCSSDQVETQACTREQNRICTCRPGWYCALSKQEGCRLCAPLRKCRPGFGVARPGTETSDVVCKPCAPGTFSNTTSSTDICRPHQICNVVAIPGNASMDAVCTSTSPTRSMAPGAVHLPQPVSTRSQHTQPTPEPSTAPSTSFLLPMGPSPPAEGSTGD
notes: also called T1b-Fc-T4wt; IL-17RA/RC-Fc-TNFR2
B2: T1-T4-32 (Fc fusion)
chain: B1 chain with A156P, H665K, N666F, S729A, S732P, G771S, R815S, N860S, E906G, F915I
notes: also called T1c-Fcb-T4g; IL-17RA/RC-Fc-TNFR2
B3: T1-T4-11 (Fc fusion)
chain: B1 chain with A156P, S729A, S732P, R815S, N860S
notes: also called T1c-Fc-T4d; IL-17RA/RC-Fc-TNFR2
B4: T1-T4-10 (Fc fusion)
chain: B1 chain with A156P, S729A, S732P, R815S
notes: also called T1c-Fc-T4c; IL-17RA/RC-Fc-TNFR2
B5: T1-T4-12 (Fc fusion)
chain: B1 chain with A156P, S729A, S732P, R815S, N860S, E906G
notes: also called T1c-Fc-T4e; IL-17RA/RC-Fc-TNFR2
B6: T1-T4-13 (Fc fusion)
chain: B1 chain with A156P, S729A, S732P, R815S, N860S, E906G, F915I
notes: also called T1c-Fc-T4f; IL-17RA/RC-Fc-TNFR2
B7: T1-T4-09 (Fc fusion)
chain: B1 chain with A156P, S729A, S732P
notes: also called T1-T4-9; T1c-Fc-T4b
B8: T1-T4-08 (Fc fusion)
chain: B1 chain with A156P, S729A
notes: also called T1-T4-8; T1c-Fc-T4a
B9: T1-T4-30 (Fc fusion)
chain: B1 chain with A156P, G771S

T3 sequence (Q16552 20-155 limits assumed): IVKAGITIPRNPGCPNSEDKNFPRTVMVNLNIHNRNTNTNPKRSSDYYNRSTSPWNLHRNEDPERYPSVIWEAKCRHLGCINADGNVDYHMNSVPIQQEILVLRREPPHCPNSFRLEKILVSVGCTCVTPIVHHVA

The target in the first assay is T2, human TNFα (human, UniProt P01375 77-233).
T2 construct: also called hTNFα
T2 sequence (P01375 77-233 limits assumed): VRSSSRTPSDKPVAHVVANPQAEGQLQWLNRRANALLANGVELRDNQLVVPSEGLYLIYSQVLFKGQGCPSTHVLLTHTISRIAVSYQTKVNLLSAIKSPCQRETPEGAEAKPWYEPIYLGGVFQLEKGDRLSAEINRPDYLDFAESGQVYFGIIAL
Briefly: ELISA, cytokine coated on plate, binder titrated, HRP secondary antibody.
As to B1, the midpoint of the response, the EC50, lay at 0.0233 µg/mL.
In turn, B2 registered a 50% effective concentration (EC50) of 0.0406 µg/mL.

A further assay addresses T3, human IL-17A (IL-17AA homodimer) (human, UniProt Q16552 20-155, limits assumed).
T3 construct: also called hIL-17A; hIL-17AA
The description is as above.
As for B1, the concentration giving a half-maximal response (EC50) worked out at 0.0103 µg/mL.
The molecule B3 showed an EC50 of 0.0106 µg/mL.
In turn, B4 displayed an EC50 of 0.0106 µg/mL.
Molecule B5 came in with a 50% effective concentration (EC50) of 0.00841 µg/mL.
Turning to B6, the EC50 worked out at 0.0092 µg/mL.
The molecule B7 displayed an EC50 of 0.0087 µg/mL.
In turn, B8 came in with an EC50 of 0.0126 µg/mL.

The next assay has as its target T2, human TNFα. Briefly: cell-based or functional assay.
In the case of B1, the “IC50 (ng/mL) of hTNFα, SEAP reporter assay in HEK-Blue TNFα cells” value (“IC50 (ng/mL) of hTNFα” for short) came to 249 ng/mL.
As to B5, the “IC50 (ng/mL) of hTNFα” value was found to be 116 ng/mL.
B6: the “IC50 (ng/mL) of hTNFα” value was determined as 138 ng/mL.

Another assay addresses T3, human IL-17A (IL-17AA homodimer). The experiment in a line: cell-based or functional assay.
Consider B1, for which the “IC50 (ng/mL) of hIL-17A, SEAP reporter assay in HEK-Blue IL-17 cells” value (from here on “IC50 (ng/mL) of hIL-17A”) amounted to 24.7 ng/mL.
On to B9, for which the “IC50 (ng/mL) of hIL-17A” value was determined as 23.7 ng/mL.
Regarding B5, the “IC50 (ng/mL) of hIL-17A” value was determined as 19.9 ng/mL.
As to B6, the “IC50 (ng/mL) of hIL-17A” value was found to be 26.9 ng/mL.
As to B2, the “IC50 (ng/mL) of hIL-17A” value is 20.5 ng/mL.

The target in a further assay is T1, human IL-17F (IL-17FF homodimer). The experiment in a line: cell-based or functional assay.
As for B1, the “IC50 (ng/mL) of hIL-17F, SEAP reporter assay in HEK-Blue IL-17 cells” value is 2230 ng/mL.
On the same count and under the same terms, to B9 belongs 1030 ng/mL.
On to B2, for which the “IC50 (ng/mL) of hIL-17F, SEAP reporter assay in HEK-Blue IL-17 cells” value was 1260 ng/mL.
